Consider five molecules from publication PMC6098011 (2018).

Primed or numbered codes have the meaning given here. No end group written: not given here. FITC′ = fluorescein isothiocyanate label

Sequences and labels used below:
B1: MBP-fused PB1-ZZ of p62 (residues 1-181) wild type (domain or fragment)
chain: not shown

In assay [1] the target is B1. Put plainly: FP; pH 8.0.
Assay [2] concerns the target Flag-ZZ (ZZ-domain of p62 with the flag-tag) (human). The assay is described as follows: FP; pH 6.0.
For assay [3], the target named is T1, FEEED (Homo sapiens, not fully specified).
T1 chain: H-FEEED
Put plainly: FP; pH 8.0.

Flag-ZZ (ZZ-domain of p62 with the flag-tag) (human), sequence (chain, as listed by the source): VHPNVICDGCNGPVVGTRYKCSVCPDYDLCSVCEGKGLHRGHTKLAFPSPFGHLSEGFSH

What is called Kd is the concentration at which binding is half-saturated. Low values mean tighter binding, high ones weaker binding. WEEEDK (also: FITC-labeled (site not given here)) [FITC-labeled N-degron peptide with tryptophan at the primary position]: the dissociation constant (Kd) in assay [1] amounted to 82 µM.

In the case of YEEEDK (also: FITC-labeled (site not given here)) [FITC-labeled N-degron peptide with tyrosine at the primary position], the Kd in assay [1] was 68 µM. For REEEDK-{FITC′} [R-BiP peptide (REEEDK–FITC)], the Kd in assay [2] is above 400 µM.

The molecule B1 displayed a Kd in assay [3] of 169 µM. Regarding KEEEDK (also: FITC-labeled, site not given here) [FITC-labeled N-degron peptide with lysine at the primary position], the dissociation constant (Kd) in assay [1] is 113 µM.
